Assay results reported in article PMC8117407 (Science (New York, N.Y.), 2020).

B1: mXFP-EpoR coexpressed with JAK2 V617F-mEGFP (complex)
chain 1: APPPNLPDPKFESKAALLAARGPEELLCFTERLEDLVCFWEEAASAGVGPGNYSFSYQLEDEPWKLCRLHQAPTARGAVRFWCSLPTADTSSFVPLELRVTAASGAPRYHRVIHINEVVLLDAPVGLVARLADESGHVVLRWLPPPETPMTSHIRYEVDVSAGNGAGSVQRVEILEGRTECVLSNLRGRTRYTFAVRARMAEPSFGGFWSAWSEPVSLLTPSDLDPLILTLSLILVVILVLLTVLALLSHRRALKQKIWPGIPSPESEFEGLFTTHKGNFQLWLYQNDGCLWWSPCTPFTEDPPASLEVLSERCWGTMQAVEPGTDDEGPLLEPVGSEHAQDTYLVLDKWLLPRNPPSEDLPGPGGSVDIVAMDEGSEASSCSSALASKPSPEGASAASFEYTILDPSSQLLRPWTLCPELPPTPPHLKYLYLVVSDSGISTDYSSGDSQGAQGGLSDGPYSNPYENSLIPAAEPLPPSYVACS
chain 2: MGMACLTMTEMEGTSTSSIYQNGDISGNANSMKQIDPVLQVYLYHSLGKSEADYLTFPSGEYVAEEICIAASKACGITPVYHNMFALMSETERIWYPPNHVFHIDESTRHNVLYRIRFYFPRWYCSGSNRAYRHGISRGAEAPLLDDFVMSYLFAQWRHDFVHGWIKVPVTHETQEECLGMAVLDMMRIAKENDQTPLAIYNSISYKTFLPKCIRAKIQDYHILTRKRIRYRFRRFIQQFSQCKATARNLKLKYLINLETLQSAFYTEKFEVKEPGSGPSGEEIFATIIITGNGGIQWSRGKHKESETLTEQDLQLYCDFPNIIDVSIKQANQEGSNESRVVTIHKQDGKNLEIELSSLREALSFVSLIDGYYRLTADAHHYLCKEVAPPAVLENIQSNCHGPISMDFAISKLKKAGNQTGLYVLRCSPKDFNKYFLTFAVERENVIEYKHCLITKNENEEYNLSGTKKNFSSLKDLLNCYQMETVRSDNIIFQFTKCCPPKPKDKSNLLVFRTNGVSDVPTSPTLQRPTHMNQMVFHKIRNEDLIFNESLGQGTFTKIFKGVRREVGDYGQLHETEVLLKVLDKAHRNYSESFFEAASMMSKLSHKHLVLNYGVCFCGDENILVQEFVKFGSLDTYLKKNKNCINILWKLEVAKQLAWAMHFLEENTLIHGNVCAKNILLIREEDRKTGNPPFIKLSDPGISITVLPKDILQERIPWVPPECIENPKNLNLATDKWSFGTTLWEICSGGDKPLSALDSQRKLQFYEDRHQLPAPKWAELANLINNCMDYEPDFRPSFRAIIRDLNSLFTPDYELLTENDMLPNMRIGALGFSGAFEDRDPTQFEERHLKFLQQLGKGNFGSVEMCRYDPLQDNTGEVVAVKKLQHSTEEHLRDFEREIEILKSLQHDNIVKYKGVCYSAGRRNLKLIMEYLPYGSLRDYLQKHKERIDHIKLLQYTSQICKGMEYLGTKRYIHRDLATRNILVENENRVKIGDFGLTKVLPQDKEYYKVKEPGESPIFWYAPESLTESKFSVASDVWSFGVVLYELFTYIEKSKSPPAEFMRMIGNDKQGQMIVFHLIELLKNNGRLPRPDGCPDEIYMIMTECWNNNVNQRPSFRDLALRVDQIRDNMAG
B2: mXFP-GHR coexpressed with JAK2 V617F-mEGFP (complex)
chain 1: FSGSEATAAILSRAPWSLQSVNPGLKTNSSKEPKFTKCRSPERETFSCHWTDEVHHGTKNLGPIQLFYTRRNTQEWTQEWKECPDYVSAGENSCYFNSSFTSIWIPYCIKLTSNGGTVDEKCFSVDEIVQPDPPIALNWTLLNVSLTGIHADIQVRWEAPRNADIQKGWMVLEYELQYKEVNETKWKMMDPILTTSVPVYSLKVDKEYEVRVRSKQRNSGNYGEFSEVLYVTLPQMSQFTCEEDFYFPWLLIIIFGIFGLTVMLFVFLFSKQQRIKMLILPPVPVPKIKGIDPDLLKEGKLEEVNTILAIHDSYKPEFHSDDSWVEFIELDIDEPDEKTEESDTDRLLSSDHEKSHSNLGVKDGDSGRTSCCEPDILETDFNANDIHEGTSEVAQPQRLKGEADLLCLDQKNQNNSPYHDACPATQQPSVIQAEKNKPQPLPTEGAESTHQAAHIQLSNPSSLSNIDFYAQVSDITPAGSVVLSPGQKNKAGMSQCDMHPEMVSLCQENFLMDNAYFCEADAKKCIPVAPHIKVESHIQPSLNQEDIYITTESLTTAAGRPGTGEHVPGSEMPVPDYTSIHIVQSPQGLILNATALPLPDKEFLSSCGYVSTDQLNKIMP
chain 2: B1 chain 2

Biological target: the molecule itself
Experiment: dual-colour single-molecule co-tracking

Protein | ligand-independent dimerization relative to ligand-induced dimerization
B1 | ~25%
B2 | ~10%
